4 molecules from US20220204629A1 (NEW YORK UNIVERSITY, published 2022) can be followed below.

What is called Kd is a measure of binding affinity in units of concentration.

The target of assay [1] is T1, human Galectin-9 CRD1 (residues 1-148) (human, UniProt O00182 1-148, biotinylated in vitro with BirA at the Avitag).
T1 construct: also called CRD1 domain of galectin-9; not shown: Avitag left upstream after thrombin cleavage of the GST fusion (pGEX)
The experiment in a line: bead-based binding assay. How it is done: The affinities of the antibodies were assessed using a bead-based assay as previously described (Nishikori et al., J Mol Biol, 2012, 424, 391-399) and surface plasmon resonance (SPR). In the bead-based assay, a biotinylated protein (either a Galectin-9 sample or a Fab sample) was immobilized on streptavidin-coated Dynabeads M280 via the biotin-streptavidin interaction. After blocking the excess biotin-binding sites on the beads using unconjugated biotin, binding titration was performed by incubating the second component (i.e., Fab for immobilized Galectin-9 or vice versa), followed by quantification using a dye-labeled neutravidin (ThermoFisher) and flow cytometry analysis. In experiments where the second component is an IgG, a dye-labeled anti-human IgG or anti-mouse IgG antibody was used for detection.
The binding activity of clone G9.1-8m13 is evaluated using conventional methods.

Assay [2] has as its target human Galectin-9 CRD2 W277A mutant (human, UniProt O00182 218-355, immobilised on streptavidin coated beads (biotinylated)). Briefly: mutant on streptavidin beads, G9.2-17 titrated. On the procedure:
(§1) FIG. 17 depicts a bar graph showing the results of epitope mapping studies of gal-9 CRD2 using alanine scanning to characterize G9.2-17 binding. Galectin-9 CRD2 mutants were generated using site-directed mutagenesis. Mutants were immobilized onto streptavidin coated beads and G9.2-17 was titrated to generate a saturation curve. KD values were calculated by fitting curves to Michaelis Menton kinetics. ΔΔG values of binding for each mutant versus wild-type galectin shown. Arrows indicate values that are outside the limit of detection for the assay. Higher ΔΔG values represent greater contribution to G9.2-17 epitope. Mutations were mapped onto the surface of gal CRD2 crystal structure (PDB 3nv4).
(§2) To determine the epitope of G9.2-17 on galectin-9 CRD2, we first mutated residues in several positions throughout CRD2 including R239, which is crucial for carbohydrate binding (Zhu et al., 2005). Only one mutation, W277K, decreased G9.2-17 binding. […] To further map the binding patch of G9.2-17, residues that are spatially adjacent to W277 were mutated to alanine and their binding was assessed. W277A and L279A result in complete abrogation of G9.2-17 binding in our assay. […] These residues are located adjacent in space in the beta-sheet, and form a patch on the back side of CRD2 relative to its carbohydrate recognition site.

For assay [3], the target named is human Galectin-9 CRD2 L279A mutant (human, UniProt O00182 218-355, immobilised on streptavidin coated beads (biotinylated)). The experiment in a line: mutant on streptavidin beads, G9.2-17 titrated. How it is done:
as §1, §2

Assay [4] deals with T1, human Galectin-9 CRD1 (residues 1-148). Briefly: bead assay, flow cytometry: biotinylated Galectin-9 CRD1 on streptavidin beads, G9.2-17 human IgG4 titrated. The source says:
For further characterization, one clone, […] (a human IgG4 molecule) was screened for CRD specificity. Biotinylated Galectin-9 CRD1 or CRD2 was immobilized onto streptavidin-coated magnetic beads. The beads were blocked with excess biotin, followed by titration of the G9.2-17 human IgG4 antibody. The beads were then stained and quantified via flow cytometry.
Background: In flow cytometry, cells or beads pass a laser one at a time.

Assay [5] deals with T2, human Galectin-9 CRD2 (residues 218-355) (human, UniProt O00182 218-355, biotinylated in vitro with BirA at the Avitag (where immobilised)).
T2 construct: also called human gal-9 CRD2; wild-type Galectin-9 CRD2; not shown: N-terminal hexahistidine tag, Avitag and TEV cleavage site of the pHBT vector
The experiment in a line: ELISA, antibody titrated over immobilized human CRD2.

Assay [6] has as its target T3, cynomolgus monkey galectin-9 CRD2 (cynomolgus monkey, UniProt A0A7N9IHL9 218-355).
T3 construct: domain: CRD2; Only two short stretches of a macaque protein are given; also called CRD2 domain of cynomolgus galectin-9; primate gal-9 CRD2
The experiment in a line: bead based binding, cynomolgus CRD2.

The target in assay [7] is T3, cynomolgus monkey galectin-9 CRD2. The experiment in a line: biolayer interferometry, G9.2-17 captured on anti-Fab probes, primate gal-9 CRD2 in solution, global fit. How it is done: (§3) FIGS. 16A-16D include graphs showing biolayer interferometry analysis to measure binding affinity to human (FIG. 16A), mouse (FIG. 16B), primate (FIG. 16C) or rat (FIG. 16D) gal-9 CRD2. G9.2-17 was captured onto anti-Fab probes and incubated either recombinant human, mouse, primate or rat gal-9 CRD2. Global fit, shown in black line, was used to calculate the dissociation constants. Representative data from triplicate runs shown.
On the technique in general: In BLI a coated tip is dipped into the sample, and binding shifts an interference pattern.

The target of assay [8] is T4, rat galectin-9 CRD2 (rat, UniProt P97840 226-354, limits assumed).
T4 construct: domain: CRD2; Only two short stretches of the rat protein are given; also called CRD2 domain of rat galectin-9; rat gal-9 CRD2
The experiment in a line: biolayer interferometry, G9.2-17 captured on anti-Fab probes, rat gal-9 CRD2 in solution, global fit. On the procedure:
as §3

For assay [9], the target named is T2, human Galectin-9 CRD2 (residues 218-355). The experiment in a line: bead based binding, human CRD2.
Assay [10] has the same target. Briefly: biolayer interferometry, G9.2-17 captured on anti-Fab probes, human gal-9 CRD2 in solution, global fit. How it is done:
as §3

Assay [11] deals with T4, rat galectin-9 CRD2. The experiment in a line: bead based binding, rat CRD2.
For assay [12], the target named is T1, human Galectin-9 CRD1 (residues 1-148). Briefly: bead based binding.

T1 sequence (O00182 1-148): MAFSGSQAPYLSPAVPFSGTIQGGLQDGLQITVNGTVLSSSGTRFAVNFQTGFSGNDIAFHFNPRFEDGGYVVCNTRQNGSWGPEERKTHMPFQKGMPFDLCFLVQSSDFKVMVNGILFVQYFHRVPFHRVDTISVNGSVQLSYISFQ
T4 sequence (P97840 226-354 limits assumed): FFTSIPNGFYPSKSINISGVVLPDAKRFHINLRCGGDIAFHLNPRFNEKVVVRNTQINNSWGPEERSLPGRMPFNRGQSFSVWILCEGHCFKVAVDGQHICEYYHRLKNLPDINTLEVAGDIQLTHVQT
T2 sequence (O00182 218-355 limits assumed): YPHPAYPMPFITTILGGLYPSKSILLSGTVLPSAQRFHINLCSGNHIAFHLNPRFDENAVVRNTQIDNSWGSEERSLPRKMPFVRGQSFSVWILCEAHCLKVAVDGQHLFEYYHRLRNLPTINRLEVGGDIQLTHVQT
human Galectin-9 CRD2 L279A mutant, sequence (O00182 218-355 L311A): as the sequence (O00182 218-355 limits assumed) above, with L94A counted along it
human Galectin-9 CRD2 W277A mutant, sequence (O00182 218-355 W309A): as the sequence (O00182 218-355 limits assumed) above, with W92A counted along it

B1: G9.1-8m13 Fab (Fab, V domains shown)
VH: EVQLVESGGGLVQPGGSLRLSCAASGFTVSSSSIHWVRQAPGKGLEWVAYIYPYSSSSSYADSVKGRFTISADTSKNTAYLQMNSLRAEDTAVYYCARYSTYSSKWVWGMDYWGQGTLVTVSS
VL: DIQMTQSPSSLSASVGDRVTITCRASQSVSSAVAWYQQKPGKAPKLLIYSASSLYSGVPSRFSGSRSGTDFTLTISSLQPEDFATYYCQQSYYDSNPITFGQGTKVEIKR
notes: Fab purified from E. coli; also called purified G9.1-8m13 Fab; 9.1-8mut13
In assay [1], B1 showed a Kd of 20.7 nM.

B2: G9.1-8m13 mIgG2a (antibody, V domains shown)
VH: EVQLVESGGGLVQPGGSLRLSCAASGFTVSSSSIHWVRQAPGKGLEWVAYIYPYSSSSSYADSVKGRFTISADTSKNTAYLQMNSLRAEDTAVYYCARYSTYSSKWVWGMDYWGQGTLVTVSS
VL: DIQMTQSPSSLSASVGDRVTITCRASQSVSSAVAWYQQKPGKAPKLLIYSASSLYSGVPSRFSGSRSGTDFTLTISSLQPEDFATYYCQQSYYDSNPITFGQGTKVEIKR
notes: also called purified G9.1-8m13 mIgG2a molecule
For B2, binding in assay [1] was characterised by a dissociation constant (Kd) of 0.3 nM.

B3: G9.2-17 human IgG4 (antibody, V domains shown)
VH: EVQLVESGGGLVQPGGSLRLSCAASGFTVSSSSIHWVRQAPGKGLEWVAYISSSSGYTYYADSVKGRFTISADTSKNTAYLQMNSLRAEDTAVYYCARYWSYPSWWPYRGMDYWGQGTLVTVSS
VL: DIQMTQSPSSLSASVGDRVTITCRASQSVSSAVAWYQQKPGKAPKLLIYSASSLYSGVPSRFSGSRSGTDFTLTISSLQPEDFATYYCQQSSTDPITFGQGTKVEIKR
notes: also called G9.2-17 hIgG4; G9.2-17 IgG4
For the molecule B3, the binding result in assay [2] is given as “no binding”; in assay [3], “no binding”; in [4], “no binding (tested: 50 nM)”. The Kd in assay [5] stood at 0.42 nM; in assay [6] it was 0.31 nM; in [7], 0.615 nM; with rat galectin-9 CRD2 [8], 2.71 nM; in assay [9], 0.15 nM; in assay [10], 0.183 nM. Further, the Kd in the assay with rat galectin-9 CRD2 [11] is 0.31 nM.

B4: G9.2-17 mIgG1 (antibody, V domains shown)
VH: EVQLVESGGGLVQPGGSLRLSCAASGFTVSSSSIHWVRQAPGKGLEWVAYISSSSGYTYYADSVKGRFTISADTSKNTAYLQMNSLRAEDTAVYYCARYWSYPSWWPYRGMDYWGQGTLVTVSS
VL: DIQMTQSPSSLSASVGDRVTITCRASQSVSSAVAWYQQKPGKAPKLLIYSASSLYSGVPSRFSGSRSGTDFTLTISSLQPEDFATYYCQQSSTDPITFGQGTKVEIKR
notes: also called mouse IgG1 version of G9.2-17; mIgG1 G9.2-17
On to B4, for which the Kd stood at 0.45 nM in [5], 0.3 nM in assay [6], 0.18 nM in assay [9] and 0.35 nM with rat galectin-9 CRD2 [11]. The binding result in assay [12] was “no binding”.
